Measurements taken from the supplement of paper PMC10126150.
± gives the standard deviation of the averaged measurements.

Tested on: ATP
Experiment: switch fluorescence ratio, 500 uM ATP over buffer (Cy3 cluster intensity, sum of 5 cycles each) (fold (ratio)); higher = stronger signal-on switching upon ATP binding; sequences stand for … in TCGTCGGCAGCGTCAGATGTGTATAAGAGACAGTTTTTTTTTTTTTTTTTTTTTTTTT…TC
Settings: aptamer strand: ATP DNA aptamer (quencher-CACCTGGGGGAGTATTGCGGAGGAAGG + anchor), 100 nM annealed; ATP concentration: 500 uM
How it was run: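 After annealing to 100 nM quencher-labelled ATP aptamer, Cy3-labelled switching-strand clusters on a modified Illumina MiSeq flow-cell were imaged in selection buffer. A second image followed after 15 min with 500 uM ATP at 22 °C, and five such buffer/ATP cycles were done, each separated by NaOH stripping and re-annealing. The fluorescence ratio, averaged per switch-domain sequence, is summed target-cycle over summed buffer-cycle Cy3 intensity per cluster, with clusters outside 100-1000 RFU excluded.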
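Note: ATP exposure 15 min at 22 °C before imaging.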

Row | Sequence | switch fluorescence ratio
1 | AAAATCGAGG | 1.016 ± 0.004
2 | GCCTGGAAAT | 1 ± 0.021
3 | GAGCAGATTG | 1.02 ± 0.036
4 | GGGTCTAGCG | 1.01 ± 0.0065
5 | TTTGCAGGGA | 1.06 ± 0.1
6 | TAAGCAGGGC | 1.068 ± 0.0043
7 | TTTATGACGT | 1 ± 0.023
8 | TAGGCTGATA | 1.01 ± 0.029
9 | GCTCGCGTGG | 0.956 ± 0.025
10 | GGGAGGCGAT | 0.975 ± 0.051
11 | CCTGTGTGAC | 1.344 ± 0.013
12 | GCTTTGTATG | 0.9678 ± 0.0094
13 | TTTGATACCT | 1.266 ± 0.0022
14 | AAAGCAGTAT | 1.14 ± 0.068
15 | TCTTGTGCAT | 1.05 ± 0.03
16 | GATTCTTTAC | 1.03 ± 0.029
17 | GTATCTGGGT | 0.997 ± 0.011
18 | GTTAGGTTGC | 1.01 ± 0.046
19 | AATGATTCTT | 0.98 ± 0.016
20 | CTGCCCTATT | 1 ± 0.023
21 | ATAGTAAGTA | 0.996 ± 0.024
22 | TTCAGTGCAT | 1.02 ± 0.051
23 | TTTTTACCGT | 1.12 ± 0.088

Row | Sequence | switch fluorescence ratio
24 | TATAACGGTT | 1.034 ± 0.0074
25 | GGGGAATTGG | 0.994 ± 0.024
26 | TATTCGCCCA | 1.11 ± 0.2
27 | TTGCTTTAAT | 0.988 ± 0.019
28 | TGAAGTCGAC | 1 ± 0.068
29 | AAGGGGCCTG | 0.977 ± 0.018
30 | GGGAAGTATG | 1 ± 0.057
31 | TTGTAAAATT | 0.99 ± 0.027
32 | AGGTGGGTG | 1.04 ± 0.1
33 | ACGTTGCTAA | 1.0246 ± 0.00021
34 | CCCCTTGCTC | 1.47 ± 0.058
35 | CATGTTGCGA | 1.04 ± 0.023
36 | TTTATGGCCT | 1.02 ± 0.052
37 | GTTTTGCCTC | 0.984 ± 0.01
38 | TTTTAAGTCG | 1.05 ± 0.014
39 | TCGCGGGAGA | 1.05 ± 0.023
40 | GGGGTACAGT | 0.9946 ± 0.0091
41 | TGTAATTGGT | 1.003 ± 0.0089
42 | CCGAGAATCG | 1.02 ± 0.036
43 | GTTAAAAGGC | 0.986 ± 0.023
44 | ATGGTAAGAC | 1.14 ± 0.062
45 | TGGTTTCTTT | 1.006 ± 0.0059
46 | ACGAGTTTTT | 1.01 ± 0.021

Row | Sequence | switch fluorescence ratio
47 | AGGGGGAGGT | 0.975 ± 0.017
48 | TGGGGTTG | 0.993 ± 0.018
49 | TTTCGGTCAT | 1.02 ± 0.029
50 | GAGGCTATCT | 1.07 ± 0.0035
51 | TTGGGATGCC | 1.08 ± 0.17
52 | AAAGCGAAGG | 1.01 ± 0.044
53 | ACCAGATGCG | 1.01 ± 0.03
54 | TATACTTGGC | 1.07 ± 0.059
55 | TGGGGCTGCC | 0.969 ± 0.039
56 | TTTGTGTGGG | 1.03 ± 0.03
57 | GACCTCGGGA | 1.024 ± 0.0028
58 | CCAGCTTTTT | 0.957 ± 0.054
59 | GTTAGGAATT | 0.985 ± 0.032
60 | CGTTTTTCGG | 0.971 ± 0.0087
61 | CCTGTAAGCT | 1.3 ± 0.077
62 | GTTATAGTTT | 0.985 ± 0.014
63 | CTCTAAGGC | 1.094 ± 0.0084
64 | AGATTGGATA | 1.01 ± 0.036
65 | GGGGCCGGGG | 1.01 ± 0.018
66 | CCATTTAGTT | 1.09 ± 0.12
67 | GTGTAATTGG | 1.018 ± 0.0058
68 | CATTGTGTTT | 0.9707 ± 0.0029
69 | TGGAGCGCCG | 1.01 ± 0.028

Row | Sequence | switch fluorescence ratio
70 | ATCGGGACGG | 0.9829 ± 0.0029
71 | ATCATATATC | 0.983 ± 0.089
72 | AGGCTTATTT | 1 ± 0.023
73 | TAGTTACACG | 1.01 ± 0.025
74 | AATTGATTAG | 1.03 ± 0.038
75 | TAGATGTTGA | 0.973 ± 0.036
76 | TGGTGATTAG | 0.995 ± 0.023
77 | TTACGGCCAA | 1.26 ± 0.31
78 | GATATAAAGA | 0.994 ± 0.046
79 | TAATCCTGTA | 0.9994 ± 0.003
80 | GAAATTAGAT | 1.003 ± 0.0098
81 | TAGCTTTCGA | 1.06 ± 0.031
82 | ATTTATACGG | 1.02 ± 0.015
83 | ACGGGGAGGG | 1.04 ± 0.037
84 | TTTGTTTAAA | 0.974 ± 0.027
85 | CCAATTTGCT | 1.02 ± 0.056
86 | AGTGTTTTTG | 0.9936 ± 0.0011
87 | TGTTTATGAG | 0.9849 ± 0.0034
88 | TTGCGTATTT | 0.993 ± 0.033
89 | AAGTTAGTTT | 0.966 ± 0.043
90 | GGGTTCCGTG | 1.01 ± 0.024
91 | GGCGGGACGA | 0.973 ± 0.036
92 | AAAGTTACGT | 1.01 ± 0.044

Row | Sequence | switch fluorescence ratio
93 | ATCCGAGATG | 1.034 ± 0.0074
94 | TAAAGGACGG | 1.01 ± 0.038
95 | CAGGGAGTAG | 1.01 ± 0.021
96 | TGGGCTTCGG | 0.9689 ± 0.0093
97 | CAAATCGTTG | 0.9786 ± 0.0024
98 | TAGGAGGGA | 1 ± 0.024
99 | TCGGGGTTGT | 1.01 ± 0.087
100 | AGGGGGTCAG | 0.986 ± 0.027
101 | GAGTTGGGTC | 1.02 ± 0.021
102 | GGTTTTTCGT | 0.977 ± 0.024
103 | TAGCGGTTGG | 1.022 ± 0.0053
104 | GAGGGGGGGT | 1.08 ± 0.34
105 | TTTGATAAGT | 1.06 ± 0.07
106 | TGTCGTAGGA | 1.006 ± 0.0035
107 | TGATGAAATG | 1.01 ± 0.049
108 | GCAATTTCAG | 1.05 ± 0.021
109 | TTCAAGGGTT | 1.07 ± 0.18
110 | CGAATCTTGT | 1.01 ± 0.016
111 | TGGTGGTCAG | 0.98151 ± 0.00069
112 | TATGTACGCA | 1.11 ± 0.018
113 | AGCGGCTCGC | 1.007 ± 0.0047
114 | ATCTTCAACT | 1.052 ± 0.01
115 | TGGGTGGGGG | 1 ± 0.024

Row | Sequence | switch fluorescence ratio
116 | GTATGGCGAC | 1.02 ± 0.011
117 | AAGCTGGTGT | 1.014 ± 0.0075
118 | TTTTCCTAGA | 1.004 ± 0.0057
119 | GCCGAAAGGA | 1.04 ± 0.039
120 | CCGTTGGGTG | 1.12 ± 0.071
121 | TAATCGAGGG | 0.9831 ± 0.0091
122 | GATTAGATGT | 0.9917 ± 0.0067
123 | TTCGTGTACG | 1.02 ± 0.019
124 | AGGGTCAATG | 0.983 ± 0.013
125 | TGCAGTTTGA | 1.02 ± 0.012
126 | TGTGGGTCGT | 1.01 ± 0.026
127 | ATAAACGGCG | 1.01 ± 0.024
128 | GGTCCTGGAC | 1.02 ± 0.019
129 | GCTCGGGGTT | 1.01 ± 0.011
130 | AATTGAAAAA | 1.05 ± 0.069
131 | CTCGGCCGAG | 0.982 ± 0.016
132 | AGTCCGATGC | 1.51 ± 0.17
133 | CAGGGGTTGC | 1.01 ± 0.013
134 | AATATTTTAT | 1.014 ± 0.0022
135 | TCCATTTTCG | 0.984 ± 0.025
136 | TCCGATTGGG | 0.9801 ± 0.0071
137 | TAAGTTTTTA | 1.03 ± 0.023
138 | AGAGGTCTGT | 0.986 ± 0.0056

Row | Sequence | switch fluorescence ratio
139 | TGCGGTTAGC | 1.004 ± 0.006
140 | TTAGCTCTA | 1.012 ± 0.0054
141 | GAGTAAAAAG | 0.99 ± 0.014
142 | GGCACGTGGG | 0.999 ± 0.017
143 | TTGATCTCAT | 0.9479 ± 0.0076
144 | TTTTATATGG | 0.986 ± 0.021
145 | GGGGGATTCC | 1.02 ± 0.017
146 | GTTTTCGGCC | 0.996 ± 0.029
147 | GGCGCAGCAA | 1.47 ± 0.091
148 | GCCAATACCA | 1.22 ± 0.013
149 | GGGATAAGGC | 1.08 ± 0.014
150 | GCGTTCGGCC | 1.01 ± 0.016
151 | CAAGGGTTGC | 0.987 ± 0.056
152 | TGACGACTGT | 1 ± 0.021
153 | TTAATTGGGC | 1.03 ± 0.069
154 | TGGGTGGTTT | 1.02 ± 0.019
155 | AGGGGAGTGG | 0.992 ± 0.038
156 | CCCGGGGTAC | 2.969 ± 0.027
157 | TTTGGGTGTG | 0.983 ± 0.016
